These results are taken from paper PMC6894070, “The Plasmodium falciparum Hsp70-x chaperone assists the heat stress response of the malaria parasite” (The FASEB Journal, 2019).

Assay [1] concerns the target T1, human heat shock cognate protein 70 (Hsc70), full length (human, UniProt P11142 1-646).
T1 construct: also called HSPA8; heat shock protein family A (hspa) member 8
As to the kind of experiment: NMR titration; 15N-labelled PFA0660wJ titrated with unlabelled chaperone; HSQC peak intensity changes; 25°C; 20 mM sodium phosphate pH 7.4, 150 mM NaCl, 2 mM DTT. The settings on record: both partners purified.

For assay [2], the target named is Plasmodium falciparum Hsp70-x (PfHsp70-x), full-length construct aa 25-679 (P. falciparum, UniProt K7NTP5 25-679). As to the kind of experiment: cell-based or functional assay.

T1 sequence (P11142 whole entry): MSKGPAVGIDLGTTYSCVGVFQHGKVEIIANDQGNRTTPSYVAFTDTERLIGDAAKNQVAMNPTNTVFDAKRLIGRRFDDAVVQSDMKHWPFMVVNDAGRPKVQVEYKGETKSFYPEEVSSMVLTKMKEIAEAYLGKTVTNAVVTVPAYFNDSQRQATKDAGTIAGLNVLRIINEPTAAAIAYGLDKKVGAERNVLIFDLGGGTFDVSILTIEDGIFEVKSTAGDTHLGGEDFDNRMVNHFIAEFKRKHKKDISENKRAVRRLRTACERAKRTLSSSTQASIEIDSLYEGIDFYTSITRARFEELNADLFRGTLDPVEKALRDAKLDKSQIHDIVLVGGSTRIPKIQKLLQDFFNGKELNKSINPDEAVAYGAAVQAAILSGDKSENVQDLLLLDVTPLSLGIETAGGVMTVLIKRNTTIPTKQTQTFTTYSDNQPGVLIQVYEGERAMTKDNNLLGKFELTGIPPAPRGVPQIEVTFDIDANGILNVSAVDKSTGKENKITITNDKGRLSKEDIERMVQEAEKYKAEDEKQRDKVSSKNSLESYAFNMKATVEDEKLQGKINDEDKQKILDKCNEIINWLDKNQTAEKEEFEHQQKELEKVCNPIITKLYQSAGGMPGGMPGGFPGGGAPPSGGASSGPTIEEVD

B1: J-domain of P. falciparum Hsp40 cochaperone PFA0660w (PFA0660wJ), aa 81-148 (domain or fragment, UniProt Q8I2E1 81-148, looked up)
chain: MDYYTLLGVDKGCSEDDLRRAYLKLAMKWHPDKHVNKGSKVEAEEKFKNICEAYSVLSDNEKRVKYDL
notes: PFA0660w, P. falciparum, pf3d7_0113700, UniProt Q8I2E1, J-domain aa 81-148; codon-optimized synthetic DNA; 15N-labelled (or 13C,15N-labelled) in the NMR assays; unlabelled in the ATP hydrolysis assays; also called PFA0660w J-domain; not shown: His6, N-terminal, cleaved
Consider B1, for which the binding result in assay [1] was “binds”. Besides, the “fold change in ATP hydrolysis activity of PfHsp70-x upon titration of the J-domain (5 μM chaperone)” value in assay [2] is around 2 fold.
